Results from PMC7090010.
Values belong to the substance of their own block, whether it stands above or below them.

What was measured:
Conditions in all cases: scale: % of the maximum spliced product formation
[1] = target: split mCherry-split intein C-terminal chimeric protein, SspGyrB intein split at site S2
[2] = target: split mCherry-split intein C-terminal chimeric protein, gp41-1 intein split at site S2
[3] = target: split mCherry-split intein C-terminal chimeric protein, IMPDH-1 intein split at site S2
[4] = target: split mCherry-split intein C-terminal chimeric protein, gp41-8 intein split at site S2
[5] = target: split mCherry-split intein C-terminal chimeric protein, NrdJ-1 intein split at site S2

in vitro trans-splicing of mixed lysates (room temperature, 100 mM Tris-HCl pH 9.0, 100 mM NaCl, 2 mM DTT): spliced mCherry by Western blot, share of the maximum spliced product within 1 h [1]: > 75
Substance: split mCherry-split intein N-terminal chimeric protein, SspGyrB intein split at site S2 (domain or fragment)

in vitro trans-splicing of mixed lysates (room temperature, 100 mM Tris-HCl pH 9.0, 100 mM NaCl, 2 mM DTT): spliced mCherry by Western blot, share of the maximum spliced product within 1 h [2]: > 75
Substance: split mCherry-split intein N-terminal chimeric protein, gp41-1 intein split at site S2 (domain or fragment)

in vitro trans-splicing of mixed lysates (room temperature, 100 mM Tris-HCl pH 9.0, 100 mM NaCl, 2 mM DTT): spliced mCherry by Western blot, share of the maximum spliced product within 1 h [3]: > 75
Substance: split mCherry-split intein N-terminal chimeric protein, IMPDH-1 intein split at site S2 (domain or fragment)

in vitro trans-splicing of mixed lysates (room temperature, 100 mM Tris-HCl pH 9.0, 100 mM NaCl, 2 mM DTT): spliced mCherry by Western blot, share of the maximum spliced product within 1 h [4]: > 75
Substance: split mCherry-split intein N-terminal chimeric protein, gp41-8 intein split at site S2 (domain or fragment)

in vitro trans-splicing of mixed lysates (room temperature, 100 mM Tris-HCl pH 9.0, 100 mM NaCl, 2 mM DTT): spliced mCherry by Western blot, share of the maximum spliced product within 1 h [5]: > 75
Substance: split mCherry-split intein N-terminal chimeric protein, NrdJ-1 intein split at site S2 (domain or fragment)
